According to PMC7181197:

Assays:
GFP-G3BP1(S149A) = GFP-G3BP1(S149A) (UniProt Q13283 1-466, S149A); test: EMSA
GFP-G3BP1(WT) [1] = molecular target: T1, GFP-G3BP1(WT) (UniProt Q13283 1-466); test: EMSA
[2] = molecular target: GFP-G3BP1(WT);mCherry-Caprin-1 (human?;human?, UniProt Q13283;Q14444 1-466;1-709, |); test: EMSA
GFP-G3BP1(WT) [3] = molecular target: T1, GFP-G3BP1(WT); test: analytical size exclusion chromatography

T1 sequence (Q13283 whole entry): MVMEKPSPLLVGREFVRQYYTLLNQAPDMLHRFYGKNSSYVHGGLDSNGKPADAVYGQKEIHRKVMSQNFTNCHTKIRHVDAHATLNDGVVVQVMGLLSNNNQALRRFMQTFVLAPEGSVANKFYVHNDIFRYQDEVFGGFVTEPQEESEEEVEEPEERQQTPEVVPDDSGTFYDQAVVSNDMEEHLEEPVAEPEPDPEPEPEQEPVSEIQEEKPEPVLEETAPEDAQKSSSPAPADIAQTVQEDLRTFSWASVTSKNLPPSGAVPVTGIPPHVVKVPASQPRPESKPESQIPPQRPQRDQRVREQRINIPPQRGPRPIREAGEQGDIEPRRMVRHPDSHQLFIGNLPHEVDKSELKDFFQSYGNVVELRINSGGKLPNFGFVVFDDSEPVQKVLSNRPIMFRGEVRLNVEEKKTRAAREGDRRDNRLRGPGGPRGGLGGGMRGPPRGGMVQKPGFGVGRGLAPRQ
Chain of GFP-G3BP1(S149A) (Q13283 whole entry S149A): as the sequence (Q13283 whole entry) above, with S149A counted along it
Chain of GFP-G3BP1(WT);mCherry-Caprin-1 (Q13283 whole entry, chain 1 of 2): as the sequence (Q13283 whole entry) above
Chain of GFP-G3BP1(WT);mCherry-Caprin-1 (Q14444 whole entry, chain 2 of 2): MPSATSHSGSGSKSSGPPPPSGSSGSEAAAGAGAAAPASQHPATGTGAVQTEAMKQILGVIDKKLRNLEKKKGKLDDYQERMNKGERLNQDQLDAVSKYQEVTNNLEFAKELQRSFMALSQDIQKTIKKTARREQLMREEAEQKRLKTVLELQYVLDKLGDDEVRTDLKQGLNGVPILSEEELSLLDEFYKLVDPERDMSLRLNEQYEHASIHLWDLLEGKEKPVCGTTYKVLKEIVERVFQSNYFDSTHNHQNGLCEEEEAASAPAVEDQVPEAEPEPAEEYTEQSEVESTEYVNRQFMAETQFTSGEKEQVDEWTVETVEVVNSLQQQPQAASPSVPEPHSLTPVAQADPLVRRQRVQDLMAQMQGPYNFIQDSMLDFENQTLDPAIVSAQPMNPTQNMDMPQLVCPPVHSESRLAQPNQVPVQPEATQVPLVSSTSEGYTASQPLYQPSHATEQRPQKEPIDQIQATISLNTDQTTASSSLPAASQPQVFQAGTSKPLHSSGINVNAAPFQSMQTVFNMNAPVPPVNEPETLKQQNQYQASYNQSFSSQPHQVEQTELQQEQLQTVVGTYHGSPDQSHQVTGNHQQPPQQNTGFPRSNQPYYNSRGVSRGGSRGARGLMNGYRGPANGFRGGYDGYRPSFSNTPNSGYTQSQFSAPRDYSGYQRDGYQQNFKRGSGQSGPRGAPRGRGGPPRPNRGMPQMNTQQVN

B1: A(60)-Cy5 RNA (ssRNA)
RNA: AAAAAAAAAAAAAAAAAAAAAAAAAAAAAAAAAAAAAAAAAAAAAAAAAAAAAAAAAAAA
modifications: 3' pCp-Cy5 ligated (adds one 3' C)
GFP-G3BP1(S149A)
  Kd: ~1900 nM
GFP-G3BP1(WT) [1]
  Kd: ~2000 nM
[2]
  binding result: binds

B2: A(60) RNA unlabeled (ssRNA)
RNA: AAAAAAAAAAAAAAAAAAAAAAAAAAAAAAAAAAAAAAAAAAAAAAAAAAAAAAAAAAAA
GFP-G3BP1(WT) [3]
  binding result: binds
